{"source": "patent US11324803B2", "about": "“Methods and compositions for treatment of Gaucher Disease via modulation of C5a receptor” (Children's Hospital Medical Center, priority 2015, dated 2022)", "molecules": {"B1": {"name": "Thr Leu Gln Lys Lys Ile Glu Glu Ile Ala Ala Lys Tyr Lys His Ser Val Val Lys Lys Cys Cys Tyr Asp Gly Ala Ala Val Asn Asn Asp Glu Thr Cys Glu Gln Arg Ala Ala Arg Ile Ser Leu Gly Pro Arg Cys Ile Lys Ala … (protein)", "chain": "TLQKKIEEIAAKYKHSVVKKCCYDGAAVNNDETCEQRAARISLGPRCIKAFTECCVVASQLRANISFKRS", "modifications": "mutant C5a-(1-66, Cys27A1a) -A8B-Del. 71-73 of human C5a", "notes": "positions 27 and 68-71 of human C5a mutated and positions 72-74 deleted"}}, "key": {"[1]": {"biological_target": "T1, C5aR1 (Homo sapiens, UniProt P21730)", "T1 sequence (P21730 1-350)": "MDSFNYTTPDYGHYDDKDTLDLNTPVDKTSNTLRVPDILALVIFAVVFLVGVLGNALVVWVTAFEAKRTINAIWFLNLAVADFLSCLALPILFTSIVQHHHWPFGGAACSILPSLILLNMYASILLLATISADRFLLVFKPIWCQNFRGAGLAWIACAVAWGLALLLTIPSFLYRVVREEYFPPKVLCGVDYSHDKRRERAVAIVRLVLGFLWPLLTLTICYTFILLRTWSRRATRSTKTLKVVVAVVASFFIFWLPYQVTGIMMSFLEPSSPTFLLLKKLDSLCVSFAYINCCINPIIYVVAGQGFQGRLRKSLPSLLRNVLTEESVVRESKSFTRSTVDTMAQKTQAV", "conditions": "cited from earlier work"}, "[2]": {"biological_target": "T2, mouse C5aR1 (Mus musculus, UniProt P30993)", "T2 sequence (P30993 1-351)": "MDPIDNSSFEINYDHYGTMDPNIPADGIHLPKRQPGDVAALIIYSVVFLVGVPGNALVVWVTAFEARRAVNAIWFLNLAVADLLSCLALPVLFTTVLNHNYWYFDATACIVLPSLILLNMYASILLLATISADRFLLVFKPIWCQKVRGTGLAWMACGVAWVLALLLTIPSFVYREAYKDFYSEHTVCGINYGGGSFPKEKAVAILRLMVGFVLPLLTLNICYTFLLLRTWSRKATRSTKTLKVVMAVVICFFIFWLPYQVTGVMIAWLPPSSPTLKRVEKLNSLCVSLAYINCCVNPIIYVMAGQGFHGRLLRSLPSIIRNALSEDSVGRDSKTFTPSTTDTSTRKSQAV", "conditions": "cited from earlier work"}, "[3]": {"biological_target": "human C5aR2 (C5L2) (Homo sapiens, UniProt Q9P296)", "sequence (Q9P296 whole entry)": "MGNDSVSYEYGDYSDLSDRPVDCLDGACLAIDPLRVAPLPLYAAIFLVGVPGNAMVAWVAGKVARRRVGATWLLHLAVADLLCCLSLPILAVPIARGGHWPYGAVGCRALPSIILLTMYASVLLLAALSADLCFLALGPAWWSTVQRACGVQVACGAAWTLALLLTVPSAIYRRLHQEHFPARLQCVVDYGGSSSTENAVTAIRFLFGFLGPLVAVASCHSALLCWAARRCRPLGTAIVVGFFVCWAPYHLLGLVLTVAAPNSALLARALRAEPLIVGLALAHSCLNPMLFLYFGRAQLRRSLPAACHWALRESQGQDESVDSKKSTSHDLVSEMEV", "conditions": "cited from earlier work"}, "[4]": {"system": "C5a-induced effector functions", "conditions": "cited from earlier work"}, "[5]": {"biological_target": "T1, C5aR1", "assay": "GC-IC-induced CCL18 and pro-inflammatory cytokine production in CBE-treated human MΦ-like cell line U937 with C5aRA", "assay_type": "cell-based", "parameters": "endogenous in cells; host or cells: U937 (human macrophage-like cell line), CBE-treated"}, "[6]": {"conditions": "CBE-treated U937 cells, GC-IC stimulation, ELISA"}}, "data": [{"molecule": "B1", "values": [{"measurement": "affinity to bind human C5aR1", "setting": "[1]", "value": "high affinity"}, {"measurement": "affinity to bind mouse C5aR1", "setting": "[2]", "value": "high affinity"}, {"measurement": "affinity to bind human C5aR2 (C5L2)", "setting": "[3]", "value": "high affinity"}, {"measurement": "C5a-induced effector functions", "setting": "[4]", "value": "inhibit"}, {"measurement": "GC-IC-induced production of CCL18", "setting": "[5]; [6]", "value": "abolished"}, {"measurement": "GC-IC-induced production of IL1β", "setting": "[5]; [6]", "value": "abolished"}, {"measurement": "GC-IC-induced production of IL6", "setting": "[5]; [6]", "value": "abolished"}, {"measurement": "GC-IC-induced production of IL23", "setting": "[5]; [6]", "value": "abolished"}, {"measurement": "GC-IC-induced production of TNFα", "setting": "[5]; [6]", "value": "abolished"}, {"measurement": "GC-IC-induced production of CCL18", "setting": "[5]; CBE-treated U937 cells, GC-IC stimulation, ELISA, listed as C5aR antagonist A8^Δ71-73", "value": "marked reduction"}, {"measurement": "MΦs, DC and T cells mediated immune inflammation", "setting": "[5]; human model of Gaucher disease", "value": "significantly reduces"}]}]}
